What was measured:
[1] = molecular target: the molecule itself; assay: SEC-SAXS; early elution peak of GspL^peri, 9.0 mg/ml injected; Bio SEC-3 column, SWING beamline
[2] = molecular target: the molecule itself; assay: SEC-SAXS; late elution peak of GspL^peri, 13.7 mg/ml injected; Bio SEC-3 column, SWING beamline
[3] = molecular target: the molecule itself; assay: SEC-MALLS; early elution peak (EEP) of GspL^peri, one hour after purification and after concentration; Superdex 200 increase in 50 mM TRIS pH 7.5, 100 mM NaCl; tetramer converts irreversibly into dimers
[4] = molecular target: the molecule itself; assay: crystal structure; crystal form 1, space group I4(1)22, 2.5 Å; dimer generated by a crystallographic 2-fold axis; sample from the LEP, sitting drop vapor diffusion at 20 °C
[5] = molecular target: the molecule itself; assay: SEC-MALLS; GspL^fld made by incubation of GspL^peri in crystallization conditions over 48 hours and purified by SEC (absorbance at 220 nm)

B1: GspL^peri, the complete periplasmic segment of general secretory pathway protein L (GspL) from Pseudomonas aeruginosa (domain or fragment)
chain: GDRYAAQSAELYRQLFPEDRKLINLRAQFDQHLADSASSGGEGQLLGLLGQAATVIGGEPTVSVEQLDFSAARGDVALQVRAPGFDVLERLRSRLSESGLAVQLGSASRDGSTVSARLVIGG
notes: membrane proximal domain (MPD), short linker and ferredoxin-like domain (FLD); calculated mass of the construct 13.95 kDa; No step that removes the tag is described; also called XcpY (periplasmic segment); EEP and LEP material; source: E. coli BL21 (DE3), purified (Strep-tactin, SEC on Superdex 75); not shown: Strep-tag, N-terminal, kept
stoichiometry N [1]: 4
stoichiometry N [2]: 2
tetramer to dimer ratio of peak areas, higher concentration [3]: 0.57
tetramer to dimer ratio of peak areas, lower concentration [3]: 0.7

B2: GspL^fld, the crystallized proteolytic product of GspL^peri (ferredoxin-like domain of GspL) (domain or fragment)
chain: RAQFDQHLADSASSGGEGQLLGLLGQAATVIGGEPTVSVEQLDFSAARGDVALQVRAPGFDVLERLRSRLSESGLAVQLGSASRDGSTVSARLVIGG
notes: GspL (XcpY), P. aeruginosa PAO1; proteolytic product of the construct 261-382 with the new N-terminus at residue 286 (Edman degradation); the C-terminal limit 382 is that of the parent construct; The protease is not identified; the N-terminal Strep-tag is lost with the N-terminal part of the MPD; also called Gsp^fld; crystal form 1; source: E. coli BL21 (DE3), purified GspL^peri (late elution …)
stoichiometry N [4]: 2

B3: GspL^fld purified from GspL^peri that was incubated in crystallization conditions over 48 hours (domain or fragment)
chain: DSASSGGEGQLLGLLGQAATVIGGEPTVSVEQLDFSAARGDVALQVRAPGFDVLERLRSRLSESGLAVQLGSASRDGSTVSARLVIGG
notes: GspL (XcpY), P. aeruginosa PAO1; mixture of two proteolytic variants of the construct 261-382 that start at residues 286 and 295 (Edman degradation), the shorter one (from 295) predominant; the C-terminal limit 382 is that of the parent construct; The sample is a mixture of 295-382 (predominant) and 286-382; also called GspL^fld (in solution); 10 kDa band; source: E. coli BL21 (DE3), purified …
stoichiometry N [5]: 2
